Measurements published in US20130052638, “Methods for detecting DNA-binding proteins” (Agency for Science, Technology and Research, published 2013).

How the values were obtained:
[1] = target: T1, Estrogen receptor beta (ERβ) (UniProt Q92731 Q92731:1-530); assay: competition; free competitor at 4:1 over ERβ, 360 nM ERβ, 56 mM KCl, 5 min; strong competitor; details: chain copies: 2
Experimental: (§1) In this study, excess unmodified DNA competitor (i.e., wtERE and scrDNA, are used as strong and weak competitors, respectively) was pre-incubated with the ERβ at room temperature for 20 minutes to allow for complex formation (molar ratio of ERβ:dsDNA is 1:4), followed by the addition to the complementary mixture of v1-v2-AuNPs in 56 mM KCl, with final ERβ concentration of 360 nM. In the presence of strong competitor (wtERE), limited amount of ERβ bound to the ERE anchored on the AuNPs surface, leading to extensive particle aggregation in salt solution. […]
(§2) The aggregation state of the AuNPs was quantified using UV-Vis absorption spectrum as indicated by the shift of LSPR peak at 526 nm wavelength to a longer wavelength (e.g. 650 nm). The UV-Vis absorbance ratio at 650 nm to that at 526 nm, i.e., A650/A526 is indicative of the particle aggregation degree where a higher ratio is directly related to a larger extent of aggregation. In this study, the deviation percentage (i.e., [(X−Y)/Y]*100%) was calculated based on the difference in aggregation ratio of AuNP samples (measure as A650/A526) with competitors (denoted as X) relative to that without competitor (denoted as Y) at 5 minutes after mixing in the 56 mM KCl-containing protein binding buffer. A 9.0% of deviation was recorded for the scrambled DNA sequence (scrDNA). […]

[2] = target: T1, Estrogen receptor beta (ERβ); assay: competition; free competitor at 4:1 over ERβ, 360 nM ERβ, 56 mM KCl, 5 min; attributed to non-specific binding; details: chain copies: 2
Experimental: as §1, §2

T1 sequence (Q92731 whole entry, one chain of several): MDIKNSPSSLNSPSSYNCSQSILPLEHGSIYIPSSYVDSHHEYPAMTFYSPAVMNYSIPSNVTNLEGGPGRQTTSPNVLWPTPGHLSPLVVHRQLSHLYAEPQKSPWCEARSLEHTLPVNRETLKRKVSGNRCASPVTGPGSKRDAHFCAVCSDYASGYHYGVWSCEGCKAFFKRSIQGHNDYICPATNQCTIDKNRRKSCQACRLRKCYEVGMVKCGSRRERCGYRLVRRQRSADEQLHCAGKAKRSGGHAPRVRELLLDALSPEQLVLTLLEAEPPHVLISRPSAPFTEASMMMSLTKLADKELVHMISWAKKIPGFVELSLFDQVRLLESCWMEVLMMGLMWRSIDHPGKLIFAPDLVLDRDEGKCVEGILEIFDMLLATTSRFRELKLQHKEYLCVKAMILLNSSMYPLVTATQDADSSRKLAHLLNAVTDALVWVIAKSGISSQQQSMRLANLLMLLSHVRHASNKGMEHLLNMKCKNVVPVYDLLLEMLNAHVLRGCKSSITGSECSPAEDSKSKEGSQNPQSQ

Binder	binding signal [1]	binding signal [2]
wtERE competitor (free) (dsDNA) DNA 1: GTCCAAAGTCAGGTCACAGTGACCTGATCAAAGT DNA 2: ACTTTGATCAGGTCACTGTGACCTGACTTTGGAC	35 % deviation of aggregation ratio	
scrDNA competitor (free) (dsDNA) DNA 1: GTCCAAAGTCAATCGCCAGCACGATGATCAAAGT DNA 2: ACTTTGATCATCGTGCTGGCGATTGACTTTGGAC		9 % deviation of aggregation ratio
